According to patent publication US12686712B2, “Antibody, related use, pharmaceutical composition including method for diagnosing fungal infections, fungal infection diagnosis kit and method for treating fungal infections” (priority 2020, dated 2026):
“And” between values parts separate entries of the source, which are not always exact repeats. Equal values may be shown once.

Tests used:
C. neoformans [1] = assay: Minimum inhibiting concentration (MIC) assay, alone or in association with AmB or FLC; assay type: cell-based, Cryptococcus neoformans; settings: 48 hours at 37° C.
Description: C. neoformans cells were cultivated in RPMI 1640 buffered with MOPS in pH 7 at 10^5 cell/well density in 96-well plates in 200 μl final volume. Systems were supplemented with AcM at concentration (25 to 0.05 μg/ml), AmB (1 to 0.1 lμg/ml) or FLC (8 to 2 μg/ml), alone or in association. After 48 hours of incubation at 37° C. under agitation, cells were suspended by pipetting for spectrophotometer reading at 592 nm wavelength.
AcMs fungicide activity was tested through CIM test. […] It was assessed if AcMs association with AmB or FLC would trigger antifungal effects in sub-inhibiting concentrations, thus 1 μg/ml concentrations of AmB and 4 and 2 μg/ml to FLC in combination with AcMs different concentrations. To assess whether there was combining effect of AcMs with drug, it was used as drug action base in isolate form.

C. neoformans strain H99 = assay: Survival trial, lethal i.p. challenge; assay type: in vivo, Balb/C line mice; settings: AmB standard dose 2.5 mg/kg alone; data not provided
Description: Balb/C line mice (n=7) were lethally challenged via i.p. with 10^5 cells in PBS of C. neoformans (H99) and treated 2 hours later with 100 μl of AmB (2.5 mg/kg and 0.25 mg/kg), 100 μl of AcM (85 μg/ml) and 100 μl of AcM and AmB combined solution (0.25 mg/kg). Control animals were challenged only by C. neoformans (H99) or only with 100 μl of a solution of PBS, AmB (2.5 mg/kg) or AcM (85 μg/ml) without fungus (adapted from Liedke et al.). Survival rate was achieved and analysis was extended up to 90 days after infection, presenting statistical value with p<0.005.
Mice were lethally challenged with inoculant i.p. of 1×10^5 cells of yeast C. neoformans strain H99. After 2 hours, they were treated with PBS (negative control), 85 μg/animal of AcM (HC6/DD11) in isolate form, 0.25 or 2.5 mg/kg of AmB in isolate form, and in synergic form, AcM keeping test concentrations. Treatments were repeated for another two times, with 10-day interval.

C. albicans [2] = assay: Indirect ELISA against intact cells using poly-L-Lysine (PL); assay type: binding, Candida albicans; settings: 10^4 and 10^5 cells/ml
Description: (§1) For this test, C. neoformans (H99), Candida albicans, Giardia lamblia, human lung line cell A549 (ATCC), Escherichia coli and Staphylococcus aureus. Cells were washed in PBS three times and suspended at 10^7 cell/ml density in poly-L-Lysine (5 μg/ml in PBS) for adherence at night at 4° C. The next day, plates were blocked with PBS/BSA 5% and incubated for 1 hour at 37° C., then they are incubated for 1 hour at 37° C. with anti-chitooligomer AcM at 50 μg/ml concentration and diluted at 5 μg/ml. Then, washing with PBS/Tween 0.05% was performed for 3 times and anti-IgM murine peroxidase was added diluted 1:5000 and incubated for 2 hours at 37° C. Plates were washed again and TMB was added and incubated for 30 minutes at 37° C.
(§2) Reaction was stopped with HCl 1 N and reading with spectrophotometer at 450 nm. After this trial, seriated dilutions were performed at density of cells 10^7 until 10 cells/ml to fungi and 10^7 until 10^4 cells/ml to other cellular types and tested of AcM anti-chitooligomer at 25 μg/ml concentration, followed by the same procedures abovementioned. […]
(§3) In this trial, 10^7 cell/ml of C. albicans were used to perform an absorbance curve, in which it was observed that there was a 25 μg/ml concentration reliable signal of both AcM, as above such value the curve starts to enter in plateau, as provided in FIG. 9. […]

C. neoformans (H99) = assay: as above; assay type: binding, Cryptococcus neoformans; settings: 10^4 and 10^5 cells/ml
Description: as §1, §2, §3

Candida albicans = assay: Immunofluorescence of AcM anti-chitooligomer against intact cells; assay type: binding; settings: AcM 25 μg/mL, 1 h at 37° C.; anti-IgM Alexa 568; calcofluor
Description: Fungal cells (10^6 cells)) were fastened (cacodylate paraformolaldehyde buffer 4%; 30 min) and blocked later (PBS/BSA 1%; 1 hour). Then, they were incubated with AcM anti-chitooligomer(25 μg/mL; 1 h at 37° C.) After washing with PBS, cells were incubated with mouse anti-IgM antibody conjugated at Alexa 568 (SIGMA; 1:1000). After PBS washing, cells were incubated with 25 μM of white calcofluor (Invitrogen) and washed again. Cellular suspensions were assembled in glass blades and assessed under microscope Olympus AX70, coupled to camera system (QImaging Retiga 1300) and assessed in QCapture suite V2.46 software.
From reliable and ELISA and Dot Blot trials, biological activity validation tests. Thus, AcMs were used through immunofluorescence (IF), using the pathogen Candida albicans as template. AcMs were efficient at fungal cellular wall labeling, showing the same profile whenever standard marker is used (lectin), data not provided.

C. neoformans [3] = assay: Melanization trial (L-DOPA); assay type: cell-based, Cryptococcus neoformans
Description: C. neoformans cultivation was performed as paragraph and cellular suspension (1×10^6 cells/ml) was cultivated for 72 hours in minimum media supplemented with 1 mM of L-DOPA in 96-well plate of U-shape bottom. Antibodies HC6/DD11 and AF1/CC5 were added to minimum media within 25 to 0.05 μg/ml concentration range. The plate was centrifuged and pigment development quantification was defined densitometrically upon image scanning by iBright FL1000 Invitrogen equipment.
AcM HC6/DD11 e AF1/CC5 established concentrations were 0.2 to 25 μg/ml. L-DOPA was used with substrate to melanization.
Pigmentation in C. neoformans was assessed through brown to black sedimentation observation in 96-well plate bottom. To document pigmentation or inhibition, plates were photographed over white surfaces (clear bottom), to enable differentiation between pigmented and non-pigmented populations. It shall be noted that every AcM dose presents fungal growth, however with negative pigmentation or partial inhibition.

C. albicans [4] = assay: Biofilm development, XTT reduction trial; assay type: cell-based, Candida albicans; settings: AcM 25 μg/ml, 48 hours at 37° C., vs fungus without treatment, p<0.05
Description: (§4) C. neoformans (H99 and Cap67) and Candida albicans were cultivated in Sabouraud media for 24 hours at 30° C. Cellular suspensions were centrifuged for 5 minutes at 3000 g, washed 3 times in PBC and suspended in minimum media (20 mg/ml thiamin, 30 mm glucose, 26 mM glycine, 20 mM MgSO4, and 58.8 mM KH2PO4). Then, they were added to 96-well plates (100 μl/well—1×10^6 células/ml) and cultivated for 48 hours at 37° C. at presence of AcM (HC6/DD11 and AF1/CC5) and AcM anti-GXM 18B7 (only to H99) at 25 μg/ml concentration, keeping under agitation for 30 minutes, for AcM total homogenization with fungi. As control, drug AmB was used at 1 μg/ml concentration.
(§5) Two analysis systems were performed: in the first, cells were washed, so that non-adhering cells were removed and only cells bonded to biofilm under development remained; in the second system, cells were not washed and all cells adhered or not to substrate were quantified.
(§6) Viable cell metabolic activity in both trials was assessed by the method based on decrease of XTT (2-methoxy-4-nitro-5-sulfophenyl)-5-[(phenylamino) carbonyl]-2H-tetrazolium hydroxide) in spectrophotometer at 492 nm of wavelength.
(§7) AcMs were tested (25 μg/ml) against three fungus species (C. albicans, C. neoformans—H99—and acapsular mutant of C. neoformans—Cap67), with control by AcM anti-GXM 18B7 (25 μg/ml) only to H99. In the first assay (FIGS. 14A and B), cellular suspensions were washed to remove non-adhering cells to substrate. […] In second assay (FIGS. 14C and D), cellular suspensions were not washed, and again AcM inhibited biofilm development (p<0.05) compared to cell not treated with antibodies. In both assays, cell growth was observed.

C. neoformans H99 = assay: Biofilm development, XTT reduction trial; assay type: cell-based, Cryptococcus neoformans; settings: AcM 25 μg/ml, 48 hours at 37° C., vs fungus without treatment, p<0.05
Description: as §4, §5, §6, §7
AcMs were compared to AcM anti-GXM 18B7 concerning biofilm development inhibition.

[5] = system: acapsular mutant of C. neoformans Cap67; assay: Biofilm development, XTT reduction trial; assay type: cell-based, Cryptococcus neoformans; settings: AcM 25 μg/ml, 48 hours at 37° C., vs fungus without treatment, p<0.05
Description: as §4, §5, §6, §7

Molecule | concentration with fungicide effect (control drug alone) (C. neoformans [1]) [µg/mL] | death of infected animals (C. neoformans strain H99) | ELISA signal in cell saturation curve (C. albicans [2]) | ELISA signal in cell saturation curve (C. neoformans (H99)) | fungal cellular wall labeling by immunofluorescence (Candida albicans) | melanization in lower concentrations (C. neoformans [3]; concentrations lower than 1.6 μg/ml, p>0.05) | AcM concentration with partial inhibition of melanization/pigmentation (C. neoformans [3]; series 25 to 0.2 μg/ml, 72 hours, 1 mM L-DOPA, p<0.05) | biofilm development (XTT reduction) (C. albicans [4]; non-washed cells) | biofilm development (XTT reduction) (C. albicans [4]; washed cells) | biofilm development (XTT reduction) (C. neoformans H99; non-washed cells) | biofilm development (XTT reduction) (C. neoformans H99; washed cells) | biofilm development (XTT reduction) ([5]; non-washed cells) | biofilm development (XTT reduction) ([5]; washed cells)
OC(Cn1cncn1)(Cn1cncn1)c1ccc(F)cc1F [FLC, Fluconazole] | 8 | – | – | – | – | – | – | – | – | – | – | – | –
C[C@@H]1[C@H](O)[C@@H](C)/C=C/C=C/C=C/C=C/C=C/C=C/C=C/[C@H](O[C@@H]2O[C@H](C)[C@@H](O)[C@H](N)[C@@H]2O)C[C@@H]2O[C@](O)(C[C@@H](O)C[C@@H](O)[C@H](O)CC[C@@H](O)C[C@@H](O)CC(=O)O[C@H]1C)C[C@H](O)[C@H]2C(=O)O [AmB, amphotericin polyene B, reference compound] | 1 | did not die | – | – | – | – | – | – | – | – | – | – | –
AF1/CC5: murine IgM monoclonal antibody against chitooligomers (chitotriose); VH SEQ ID NO: 19, VL SEQ ID NO: 20 (antibody, listed as Mus musculus, V domains shown) VH: STGQVKLEESGGGLVQPGGSMKLSCAASGFTFSDAWMDWVRQSPEKGLEWVAEIRSKANNHATYYAESVKGRFTISRDDSKSSVYLQMNSLRAEDTGIYYCTRHRYDGFDYWGQGTTLTFP VL: DYFLASQGEVTMTCSASSSISYMHWYQQKPGTSPKRWIYDTSKLASGVPARFSGSGSGTSYSLTISSMEAEDAATYYCHQRSSYPCTFGAGTKLELKRADAAPTVSLETKTS | – | – | a plateau to both cells was achieved | a plateau to both cells was achieved | characteristic polar label | not significant inhibition | 3.2 µg/mL and 1.6 µg/mL | reduced biofilm development significantly | reduced biofilm development significantly | reduced biofilm development significantly | reduced biofilm development significantly | reduced biofilm development significantly | reduced biofilm development significantly
